Experimental findings from article PMC2193694 (The Journal of Experimental Medicine, 2002) are described below.

Some results are limits rather than exact numbers.

The target in test [1] is B7-H2mIg (extracellular domain of human B7-H2 linked to mouse IgG2a Fc portion) (human) (UniProt O75144). The experiment in a line: ELISA.
For test [2], the target named is T1, B7-H2mIg (extracellular domain of human B7-H2 linked to mouse IgG2a Fc portion) (human, UniProt O75144 19-256).
T1 sequence: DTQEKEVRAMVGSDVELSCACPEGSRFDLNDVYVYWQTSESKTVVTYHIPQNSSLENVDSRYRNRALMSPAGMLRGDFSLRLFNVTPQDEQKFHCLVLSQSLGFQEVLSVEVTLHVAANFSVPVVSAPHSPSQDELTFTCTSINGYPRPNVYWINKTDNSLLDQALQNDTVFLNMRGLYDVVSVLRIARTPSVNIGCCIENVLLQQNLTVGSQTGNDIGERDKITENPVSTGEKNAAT
The experiment in a line: ELISA.

Molecule “ICOSIg mutant P117S (from UniProt Q9Y6W8 21-140) (Fc fusion)” showed a percentage of B7-H2 binding activity (of ICOSIg) in test [1] of less than 0.1%.

B1: ICOSIg (extracellular domain of human ICOS fused to the CH2-CH3 portion of human IgG1) (Fc fusion)
chain: EINGSANYEMFIFHNGGVQILCKYPDIVQQFKMQLLKGGQILCDLTKTKGSGNTVSIKSLKFCHSQLSNNSVSFFLYNLDHSHANYYFCNLSIFDPPPFKVTLTGGYLHIYESQLCCQLK
Regarding B1, in test [2], the “percentage of B7-H2 binding activity (of ICOSIg)” value (“percentage” below) was found to be 100%.

B2: ICOSIg mutant D115S (Fc fusion)
chain: EINGSANYEMFIFHNGGVQILCKYPDIVQQFKMQLLKGGQILCDLTKTKGSGNTVSIKSLKFCHSQLSNNSVSFFLYNLDHSHANYYFCNLSIFSPPPFKVTLTGGYLHIYESQLCCQLK
With B2, the “percentage” value in test [2] was less than 0.1%.

B3: ICOSIg mutant F114S (Fc fusion)
chain: EINGSANYEMFIFHNGGVQILCKYPDIVQQFKMQLLKGGQILCDLTKTKGSGNTVSIKSLKFCHSQLSNNSVSFFLYNLDHSHANYYFCNLSISDPPPFKVTLTGGYLHIYESQLCCQLK
As to B3, the “percentage” value in test [2] was less than 0.1%.

B4: ICOSIg mutant F119S (Fc fusion)
chain: EINGSANYEMFIFHNGGVQILCKYPDIVQQFKMQLLKGGQILCDLTKTKGSGNTVSIKSLKFCHSQLSNNSVSFFLYNLDHSHANYYFCNLSIFDPPPSKVTLTGGYLHIYESQLCCQLK
With B4, in test [2], the “percentage” value was less than 0.1%.

B5: ICOSIg homologue replacement mutant RP49-52 (ICOS 49-52 replaced by CD28 49-52) (Fc fusion)
chain: EINGSANYEMFIFHNGGVQILCKYPDIVREFRMQLLKGGQILCDLTKTKGSGNTVSIKSLKFCHSQLSNNSVSFFLYNLDHSHANYYFCNLSIFDPPPFKVTLTGGYLHIYESQLCCQLK
Take B5: the “percentage” value in test [2] stood at 9%.

B6: ICOSIg mutant Q49S (Fc fusion)
chain: EINGSANYEMFIFHNGGVQILCKYPDIVSQFKMQLLKGGQILCDLTKTKGSGNTVSIKSLKFCHSQLSNNSVSFFLYNLDHSHANYYFCNLSIFDPPPFKVTLTGGYLHIYESQLCCQLK
With B6, in test [2], the “percentage” value worked out at 33%.

B7: ICOSIg mutant K67S (Fc fusion)
chain: EINGSANYEMFIFHNGGVQILCKYPDIVQQFKMQLLKGGQILCDLTSTKGSGNTVSIKSLKFCHSQLSNNSVSFFLYNLDHSHANYYFCNLSIFDPPPFKVTLTGGYLHIYESQLCCQLK
For B7, the “percentage” value in test [2] was less than 0.1%.

B8: ICOSIg mutant D64S (Fc fusion)
chain: EINGSANYEMFIFHNGGVQILCKYPDIVQQFKMQLLKGGQILCSLTKTKGSGNTVSIKSLKFCHSQLSNNSVSFFLYNLDHSHANYYFCNLSIFDPPPFKVTLTGGYLHIYESQLCCQLK
As for B8, in test [2], the “percentage” value came out at 6%.

B9: ICOSIg mutant Q50S (Fc fusion)
chain: EINGSANYEMFIFHNGGVQILCKYPDIVQSFKMQLLKGGQILCDLTKTKGSGNTVSIKSLKFCHSQLSNNSVSFFLYNLDHSHANYYFCNLSIFDPPPFKVTLTGGYLHIYESQLCCQLK
With B9, the “percentage” value in test [2] was determined as 6%.

B10: ICOSIg mutant F51S (Fc fusion)
chain: EINGSANYEMFIFHNGGVQILCKYPDIVQQSKMQLLKGGQILCDLTKTKGSGNTVSIKSLKFCHSQLSNNSVSFFLYNLDHSHANYYFCNLSIFDPPPFKVTLTGGYLHIYESQLCCQLK
For B10, in test [2], the “percentage” value was less than 0.1%.

B11: ICOSIg mutant K69S (Fc fusion)
chain: EINGSANYEMFIFHNGGVQILCKYPDIVQQFKMQLLKGGQILCDLTKTSGSGNTVSIKSLKFCHSQLSNNSVSFFLYNLDHSHANYYFCNLSIFDPPPFKVTLTGGYLHIYESQLCCQLK
Consider B11, for which, in test [2], the “percentage” value is 3%.
